Reference: paper PMC7807878, “Development of an engineered peptide antagonist against periostin to overcome doxorubicin resistance in breast cancer” (BMC Cancer, 2021)

Tests used:
Format in all cases: cell-based
MCF-7 cells [1] = test: Proliferation assay (MTS), MCF-7; conditions: rPN 100 ng/ml, 72 h, not statistically significant
Experimental: (§1) The proliferation assay of BCA cells was determined by the cell viability assay using CellTiter 96® Aqueous One Solution Cell Proliferation Assay (MTS assay) (Promega, Madison, WI, USA). Briefly, 3 × 10^3 cells in 100 μl medium were seeded in 96-well plates for 24 h. The day 1 baseline determination used the MTS assay following company instructions. For the experiment, cells were placed into new media containing 2% FBS with or without rPN (100 ng/ml) and anti-PN peptide (1 μM) and cells were cultured for a further 72 h. After treatment, cell viability was measured by the MTS assay. Proliferation rate was calculated as the folding of cell numbers increased from the baseline.

MCF-7 cells [2] = test: Drug sensitivity (MTS), MCF-7; conditions: doxorubicin treated MCF-7, rPN treatment experiment
Experimental: (§2) Determination the IC50 of BCA cells in response to chemotherapeutic drugs was analyzed by MTS assay. The experiment started from 5 × 10^3 of BCA cells in 100 μl medium that were seeded in 96-well plates for 24 h, then media was changed with different concentrations of new chemotherapeutic drugs [doxorubicin (S1208), paclitaxel (S1150), cisplatin (S1166), 5-fluorouracil (5-FU) (S1209) and gemcitabine (S1714) that were purchased from Selleck Chemicals, Houston, TX, USA] with or without rPN and anti-PN peptide for a further 48 h. After that, cell viability was determined by the MTS assay. Combination index (CI) was calculated by IC50 of combination of drug and PN or anti-PN peptide divided by IC50 of chemotherapeutic drug alone.
(§3) ANOVA test or Student’s t-test were applied for statistical analysis of the experiments. GraphPad Prism® version 7.04 software (GraphPad Software, San Diego, CA, USA) was used in calculation of IC50 values of chemotherapeutic drugs and PASW Statistics software version 18 (SPSS, IBM, Armonk, NY, USA) was used for other analysis. Dose-responses were compared by Holm-Sidak’s multiple comparison test. Mann-Whitney ranked-sum test was used for comparisons between normal and patient serum PN. Chi-square or Fisher’s exact test were used to determine the correlation between PN expression and clinical data in BCA patients. […]

MDA-MB-231 cells [3] = test: Wound healing migration assay, MDA-MB-231; conditions: rPN 100 ng/ml vs untreated control; P-value = 0.033
Experimental: (§4) The wound healing assay was performed to determine migration activity of the BCA cells after treatment under various conditions. Briefly, 5 × 10^4 cells of parental BCA cells or mock/PN-transfected cells were seeded in 24-well culture plates with their regular media for 24 h and media changed to 1% FBS with or without rPN (100 ng/ml) and anti-PN peptide (1 μM) and culture continued for 1 day until they reached approximately 95% confluency. Wounds were applied by scratching using 200 μl micropipette tip in a single straight line. The media with floating cells would be removed and refilled with the new experimental media. The culture process would be continued for a further 24 h and photos of the area would be taken at 8 h intervals. The migration area would be analyzed from the photos taken using TScratch version 1.0 software (https://github.com/cselab/TScratch) and migration activity calculated as μm^2/h. Independent duplicated experiments were performed.

[4] = tested on: survivin expression in BCA cells; test: Western blot, survivin expression; conditions: parental BCA cells (MDA-MB-231, MCF-7), PN alone, duplicate experiments
Experimental: (§5) To determine the secreted PN amount in conditioned-media of each cell, 3 × 10^5 cells were seeded into 6-well plates with 3 ml of complete media. Cell media were removed the next day and washed with phosphate-buffered saline (PBS), and serum free media was added. Media was collected at 24 h, centrifuged and supernatant was taken and concentrated by Vivaspin®6 (VS0691, Sartorius, Goettingen, Germany). Protein concentration was determined by Bradford reagent (#5000006, Bio-Rad Laboratories, Hercules, CA, USA) and the amounts were adjusted to 5 μg per loading. To determine protein expression or phosphorylation in the cellular part, 2 × 10^6 cells were lysed with RIPA buffer (sc-24,948, Santa Cruz Biotechnology, Inc., Dallas, TX, USA). Each sample was separated by sodium dodecyl sulfate (SDS) polyacrylamide gel electrophoresis (PAGE) and transferred to PVDF membrane. […] HRP was detected by Pierce™ enhanced chemiluminescence (ECL) reagent (Thermo Fisher Scientific) and chemiluminescence signal was detected by G:BOX gel documentation system (Syngene, Cambridge, UK). Expression level of PN was determined by ImageJ version 1.52a software (National Institutes of Health, Bethesda, MD, USA).
(§6) Parental BCA cells were treated with PN and anti-PN peptides and the intracellular signaling pathway determined by western blot analysis. Akt phosphorylation and expression of survivin were detected. […]

MDA-MB-231 cells [5] = test: Drug sensitivity (MTS), MDA-MB-231; conditions: doxorubicin treated MDA-MB-231, rPN treatment experiment
Experimental: as §2, §3

MDA-MB-231 cells [6] = test: Proliferation assay (MTS), MDA-MB-231; conditions: rPN 100 ng/ml, 72 h, P-value = 0.004
Experimental: as §1

[7] = tested on: Akt phosphorylation (pAKT) in BCA cells; test: Western blot, Akt phosphorylation; conditions: parental BCA cells (MDA-MB-231, MCF-7), PN alone, duplicate experiments
Experimental: as §5, §6

MCF-7 cells [8] = test: Wound healing migration assay, MCF-7; conditions: rPN 100 ng/ml vs untreated control; P-value = 0.030
Experimental: as §4

B1: rPN: recombinant PN (periostin), BioVendor (protein)
chain: NNHYDKILAHSRIRGRDQGPNVCALQQILGTKKKYFSTCKNWYKKSICGQKTTVLYECCPGYMRMEGMKGCPAVLPIDHVYGTLGIVGATTTQRYSDASKLREEIEGKGSFTYFAPSNEAWDNLDSDIRRGLESNVNVELLNALHSHMINKRMLTKDLKNGMIIPSMYNNLGLFINHYPNGVVTVNCARIIHGNQIATNGVVHVIDRVLTQIGTSIQDFIEAEDDLSSFRAAAITSDILEALGRDGHFTLFAPTNEAFEKLPRGVLERIMGDKVASEALMKYHILNTLQCSESIMGGAVFETLEGNTIEIGCDGDSITVNGIKMVNKKDIVTNNGVIHLIDQVLIPDSAKQVIELAGKQQTTFTDLVAQLGLASALRPDGEYTLLAPVNNAFSDDTLSMDQRLLKLILQNHILKVKVGLNELYNGQILETIGGKQLRVFVYRTAVCIENSCMEKGSKQGRNGAIHIFREIIKPAEKSLHEKLKQDKRFSTFLSLLEAADLKELLTQPGDWTLFVPTNDAFKGMTSEEKEILIRDKNALQNIILYHLTPGVFIGKGFEPGVTNILKTTQGSKIFLKEVNDTLLVNELKSKESDIMTTNGVIHVVDKLLYPADTPVGNDQLLEILNKLIKYIQIKFVRGSTFKEIPVTVYTTKIITKVVEPKIKVIEGSLQPIIKTEGPTLTKVKIEGEPEFRLIKEGETITEVIHGEPIIKKYTKIIDGVPVEITEKETREERIITGPEIKYTRISTGGGETEETLKKLLQEEVTKVTKFIEGGDGHLFEDEEIKRLLQGDTPVRKLQANKKVQGSRRRLREGRSQ
**Q.** What does the source list for B1?
**A.** Effect of rPN on proliferation (MCF-7 cells [1]): could increase cell numbers; Combination index (CI) of PN (MCF-7 cells [2]): 1.39; Effect of rPN on migration rate (MDA-MB-231 cells [3]): had a higher migration rate than the untreated control with statistical significance; Effect of PN on survivin expression [4]: could increase phosphorylation of Akt and survivin expression in all BCA cells; Combination index (CI) of PN (MDA-MB-231 cells [5]): 2.36; Effect of rPN on proliferation (MDA-MB-231 cells [6]): significantly showed induction of cell proliferation; Effect of PN on Akt phosphorylation [7]: could increase phosphorylation of Akt; Effect of rPN on migration rate (MCF-7 cells [8]): had a higher migration rate than the untreated control with statistical significance
